The source of these data is the RNAGym collection of RNA variant scans (doi:10.1021/acssynbio.7b00057).

B1: Pistol ribozyme (parent)
chain: GGGUCGUUGUUCCAUAAUCGCGUGGAUAUGGCACGCAAGUUUCUACCGGGCACCGUAAAUGUCCGACUGGAGCCGUUCGGGCGGCUAUAAACAGACCUCAGGCCCGAAGCGUGGCGGCACCUGCCGCCGGUGGUAAAAAAGAUCGGAAGAGCACACGUCU

This data set covers variants of B1. Nature of the data set: aptazyme ON/OFF ratio, guanine; higher = stronger switching; co-transcriptional cleavage with and without guanine.
With GGGUCGCAAAUCCAUAAUCGCGUGGAUAUGGCACGCAAGUUUCUACCGGGCACCGUAAAUGUCCGACUGGAGCCGUUCGGGCGGCUAUAAACAGACCUCAGGCCCGAAGCGUGGCGGCACCUGCCGCCGGUGGUAAAAAAGAUCGGAAGAGCACACGUCU, the “aptazyme ON/OFF ratio” value amounted to 1.69.

Consider GGGUCGCAAUUAUAUAAUCGCGUGGAUAUGGCACGCAAGUUUCUACCGGGCACCGUAAAUGUCCGACUGGAGCCGUUCGGGCGGCUAUAAACAGACCUCAGGCCCGAAGCGUGGCGGCACCUGCCGCCGGUGGUAAAAAAGAUCGGAAGAGCACACGUCU, for which the “aptazyme ON/OFF ratio” value worked out at 1.15.

Regarding GGGUCGCAAAUAGAUAAUCGCGUGGAUAUGGCACGCAAGUUUCUACCGGGCACCGUAAAUGUCCGACUGGAGCCGUUCGGGCGGCUAUAAACAGACCUCAGGCCCGAAGCGUGGCGGCACCUGCCGCCGGUGGUAAAAAAGAUCGGAAGAGCACACGUCU, the “aptazyme ON/OFF ratio” value came to 1.18.

On to GGGUCGCAAAUAUAUAAUCGCGUGGAUAUGGCACGCAAGUUUCUACCGGGCACCGUAAAUGUCCGACUGGAGCCGUUCGGGCGGCUAUAAACAGACCUCAGGCCCGAAGCGUGGCGGCACCUGCCGCCGGUGGUAAAAAAGAUCGGAAGAGCACACGUCU, for which the “aptazyme ON/OFF ratio” value is 1.26. For GGGUCGCAAAUAAAUAAUCGCGUGGAUAUGGCACGCAAGUUUCUACCGGGCACCGUAAAUGUCCGACUGGAGCCGUUCGGGCGGCUAUAAACAGACCUCAGGCCCGAAGCGUGGCGGCACCUGCCGCCGGUGGUAAAAAAGAUCGGAAGAGCACACGUCU the value was 1.19; for GGGUCGCAAUUGCAUAAUCGCGUGGAUAUGGCACGCAAGUUUCUACCGGGCACCGUAAAUGUCCGACUGGAGCCGUUCGGGCGGCUAUAAACAGACCUCAGGCCCGAAGCGUGGCGGCACCUGCCGCCGGUGGUAAAAAAGAUCGGAAGAGCACACGUCU, 1.26. Under GGGUCGCAAUUUCAUAAUCGCGUGGAUAUGGCACGCAAGUUUCUACCGGGCACCGUAAAUGUCCGACUGGAGCCGUUCGGGCGGCUAUAAACAGACCUCAGGCCCGAAGCGUGGCGGCACCUGCCGCCGGUGGUAAAAAAGAUCGGAAGAGCACACGUCU stands 1.3; under GGGUCGCAAUUCAAUAAUCGCGUGGAUAUGGCACGCAAGUUUCUACCGGGCACCGUAAAUGUCCGACUGGAGCCGUUCGGGCGGCUAUAAACAGACCUCAGGCCCGAAGCGUGGCGGCACCUGCCGCCGGUGGUAAAAAAGAUCGGAAGAGCACACGUCU, 1.15.

On to GGGUCGCAAUUCUAUAAUCGCGUGGAUAUGGCACGCAAGUUUCUACCGGGCACCGUAAAUGUCCGACUGGAGCCGUUCGGGCGGCUAUAAACAGACCUCAGGCCCGAAGCGUGGCGGCACCUGCCGCCGGUGGUAAAAAAGAUCGGAAGAGCACACGUCU, for which the “aptazyme ON/OFF ratio” value stood at 1.18. For GGGUCGCAAUUCGAUAAUCGCGUGGAUAUGGCACGCAAGUUUCUACCGGGCACCGUAAAUGUCCGACUGGAGCCGUUCGGGCGGCUAUAAACAGACCUCAGGCCCGAAGCGUGGCGGCACCUGCCGCCGGUGGUAAAAAAGAUCGGAAGAGCACACGUCU the value was 1.06. As for GGGUCGCAAAUACAUAAUCGCGUGGAUAUGGCACGCAAGUUUCUACCGGGCACCGUAAAUGUCCGACUGGAGCCGUUCGGGCGGCUAUAAACAGACCUCAGGCCCGAAGCGUGGCGGCACCUGCCGCCGGUGGUAAAAAAGAUCGGAAGAGCACACGUCU, the “aptazyme ON/OFF ratio” value amounted to 1.19.

Regarding GGGUCGCAAAUGCAUAAUCGCGUGGAUAUGGCACGCAAGUUUCUACCGGGCACCGUAAAUGUCCGACUGGAGCCGUUCGGGCGGCUAUAAACAGACCUCAGGCCCGAAGCGUGGCGGCACCUGCCGCCGGUGGUAAAAAAGAUCGGAAGAGCACACGUCU, the “aptazyme ON/OFF ratio” value was determined as 1.21. As to GGGUCGCAAUUUUAUAAUCGCGUGGAUAUGGCACGCAAGUUUCUACCGGGCACCGUAAAUGUCCGACUGGAGCCGUUCGGGCGGCUAUAAACAGACCUCAGGCCCGAAGCGUGGCGGCACCUGCCGCCGGUGGUAAAAAAGAUCGGAAGAGCACACGUCU, the “aptazyme ON/OFF ratio” value turned out to be 1.18.

For GGGUCGCAAUUUAAUAAUCGCGUGGAUAUGGCACGCAAGUUUCUACCGGGCACCGUAAAUGUCCGACUGGAGCCGUUCGGGCGGCUAUAAACAGACCUCAGGCCCGAAGCGUGGCGGCACCUGCCGCCGGUGGUAAAAAAGAUCGGAAGAGCACACGUCU, the “aptazyme ON/OFF ratio” value is 1.19. Under GGGUCGCAAUUUGAUAAUCGCGUGGAUAUGGCACGCAAGUUUCUACCGGGCACCGUAAAUGUCCGACUGGAGCCGUUCGGGCGGCUAUAAACAGACCUCAGGCCCGAAGCGUGGCGGCACCUGCCGCCGGUGGUAAAAAAGAUCGGAAGAGCACACGUCU stands 1.19. For GGGUCGCAAUUGUAUAAUCGCGUGGAUAUGGCACGCAAGUUUCUACCGGGCACCGUAAAUGUCCGACUGGAGCCGUUCGGGCGGCUAUAAACAGACCUCAGGCCCGAAGCGUGGCGGCACCUGCCGCCGGUGGUAAAAAAGAUCGGAAGAGCACACGUCU the value was 1.17. For GGGUCGCAAUUGAAUAAUCGCGUGGAUAUGGCACGCAAGUUUCUACCGGGCACCGUAAAUGUCCGACUGGAGCCGUUCGGGCGGCUAUAAACAGACCUCAGGCCCGAAGCGUGGCGGCACCUGCCGCCGGUGGUAAAAAAGAUCGGAAGAGCACACGUCU the value was 1.17.

With GGGUCGCAAUUGGAUAAUCGCGUGGAUAUGGCACGCAAGUUUCUACCGGGCACCGUAAAUGUCCGACUGGAGCCGUUCGGGCGGCUAUAAACAGACCUCAGGCCCGAAGCGUGGCGGCACCUGCCGCCGGUGGUAAAAAAGAUCGGAAGAGCACACGUCU, the “aptazyme ON/OFF ratio” value was found to be 1.22.
